Measurements published in paper PMC2646663 (Biochemistry, 2008).

T1: Formylglycinamide ribonucleotide amidotransferase (small PurL) from Thermotoga maritima (Thermotoga maritima, UniProt Q9X0X3 1-603)
T1 sequence: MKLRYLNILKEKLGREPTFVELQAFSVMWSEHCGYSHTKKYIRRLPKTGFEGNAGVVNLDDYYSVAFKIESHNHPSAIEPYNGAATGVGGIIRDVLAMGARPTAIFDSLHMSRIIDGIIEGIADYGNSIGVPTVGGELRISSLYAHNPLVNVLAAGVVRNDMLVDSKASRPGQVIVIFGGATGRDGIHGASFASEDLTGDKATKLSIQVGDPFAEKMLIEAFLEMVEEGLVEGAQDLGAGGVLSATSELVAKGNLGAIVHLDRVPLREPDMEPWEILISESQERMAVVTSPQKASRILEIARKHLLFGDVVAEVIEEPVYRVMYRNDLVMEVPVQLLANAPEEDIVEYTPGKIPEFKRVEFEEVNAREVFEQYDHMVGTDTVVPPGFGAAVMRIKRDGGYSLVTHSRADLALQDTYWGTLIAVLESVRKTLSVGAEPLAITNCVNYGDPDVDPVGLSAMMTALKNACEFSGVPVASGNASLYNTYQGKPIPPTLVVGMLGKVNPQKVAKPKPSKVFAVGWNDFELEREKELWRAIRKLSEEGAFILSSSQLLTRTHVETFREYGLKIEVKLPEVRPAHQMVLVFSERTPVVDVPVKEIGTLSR

B1: PurQ (glutaminase subunit of FGAR amidotransferase) from Thermotoga maritima (enzyme)
chain: MKPRACVVVYPGSNCDRDAYHALEINGFEPSYVGLDDKLDDYELIILPGGFSYGDYLRPGAVAAREKIAFEIAKAAERGKLIMGICNGFQILIEMGLLKGALLQNSSGKFICKWVDLIVENNDTPFTNAFEKGEKIRIPIAHGFGRYVKIDDVNVVLRYVKDVNGSDERIAGVLNESGNVFGLMPHPERAVEELIGGEDGKKVFQSILNYLKR
modifications: glutamyl thioester intermediate covalently linked to Cys86 (seen in the crystal structure)
B2: PurS from Thermotoga maritima (natural protein)
chain: MPLFKFAIDVQYRSNVRDPRGETIERVLREEKGLPVKKLRLGKSIHLEVEAENKEKAYEIVKKACEELLVNPVVEEYEVREL

Assays:
[1] = biological target: T1, Formylglycinamide ribonucleotide …; experiment: crystal structure
crystal structure = biological target: the molecule itself; experiment: crystal structure

Binder	stoichiometry N [1]	stoichiometry N (crystal structure)
B1	1 TmPurQ per TmPurL	
B2	2 TmPurS per TmPurL	2
